Series [1] has as its target T1, His6-ZZ-Nmd4 FL;Upf1-HD-His6 (Saccharomyces cerevisiae;Saccharomyces …, UniProt Q12129;P30771 1-218;221-851, |).
T1 sequence 1: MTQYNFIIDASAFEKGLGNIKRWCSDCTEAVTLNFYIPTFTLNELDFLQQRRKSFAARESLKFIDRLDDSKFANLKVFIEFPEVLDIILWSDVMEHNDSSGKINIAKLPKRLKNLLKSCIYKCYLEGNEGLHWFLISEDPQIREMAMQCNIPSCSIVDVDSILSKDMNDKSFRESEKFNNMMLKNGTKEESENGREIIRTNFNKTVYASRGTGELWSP
T1 sequence 2: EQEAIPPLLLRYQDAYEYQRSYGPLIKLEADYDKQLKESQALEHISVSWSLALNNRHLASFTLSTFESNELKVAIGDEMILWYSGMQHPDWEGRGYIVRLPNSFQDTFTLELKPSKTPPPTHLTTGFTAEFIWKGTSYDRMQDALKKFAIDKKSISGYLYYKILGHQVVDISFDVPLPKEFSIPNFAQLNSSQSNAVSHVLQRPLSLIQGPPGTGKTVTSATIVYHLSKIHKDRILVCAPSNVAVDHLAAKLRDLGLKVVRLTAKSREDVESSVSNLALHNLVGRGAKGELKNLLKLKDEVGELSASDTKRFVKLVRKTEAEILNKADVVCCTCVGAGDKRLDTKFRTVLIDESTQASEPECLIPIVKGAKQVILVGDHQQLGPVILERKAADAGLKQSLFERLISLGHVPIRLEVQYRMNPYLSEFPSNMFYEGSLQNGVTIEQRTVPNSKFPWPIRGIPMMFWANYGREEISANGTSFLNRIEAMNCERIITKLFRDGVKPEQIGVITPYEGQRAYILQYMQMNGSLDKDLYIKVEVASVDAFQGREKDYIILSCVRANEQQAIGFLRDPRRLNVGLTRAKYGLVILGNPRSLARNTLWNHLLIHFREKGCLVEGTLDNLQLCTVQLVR
As to the kind of experiment: ITC; preformed Nmd4/Upf1-HD complex; no nucleotide; 5 mM Mg2+; n 0.47; ITC: 100 mM Bis-Tris pH 6.5, 133 mM NaCl, 5 mM MgCl2, 5 mM 2-mercaptoethanol, 20 C; protein 20-30 uM in cell titrated with 230-280 uM RNA. As to conditions: protein: recombinant;recombinant; tags: N-terminal His6-ZZ (3C cleavable, kept for ITC);C-terminal His6; copies: 1;1; single strand. In general terms: ITC needs no label: the signal is the heat of the interaction.

For the next series, the target named is T2, Upf1-HD-His6 (Saccharomyces cerevisiae, UniProt P30771 221-851).
T2 sequence: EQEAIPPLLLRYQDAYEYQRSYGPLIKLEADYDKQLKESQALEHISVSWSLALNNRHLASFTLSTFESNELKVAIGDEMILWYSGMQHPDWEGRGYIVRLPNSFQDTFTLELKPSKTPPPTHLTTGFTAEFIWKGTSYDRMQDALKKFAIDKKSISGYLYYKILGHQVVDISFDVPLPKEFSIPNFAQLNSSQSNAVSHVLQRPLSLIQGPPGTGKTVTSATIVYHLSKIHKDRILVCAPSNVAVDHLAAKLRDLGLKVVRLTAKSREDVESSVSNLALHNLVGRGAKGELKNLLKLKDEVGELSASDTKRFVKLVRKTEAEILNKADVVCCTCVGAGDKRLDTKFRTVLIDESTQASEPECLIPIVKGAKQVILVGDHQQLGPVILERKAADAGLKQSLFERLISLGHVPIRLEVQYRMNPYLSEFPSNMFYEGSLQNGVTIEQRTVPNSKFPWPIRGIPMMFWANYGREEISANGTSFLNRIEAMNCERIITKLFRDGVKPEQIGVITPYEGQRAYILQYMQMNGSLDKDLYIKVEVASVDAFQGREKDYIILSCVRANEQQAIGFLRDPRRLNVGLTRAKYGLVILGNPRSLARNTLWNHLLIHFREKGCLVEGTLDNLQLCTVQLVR
As to the kind of experiment: ITC; no nucleotide; 5 mM Mg2+; ITC: 100 mM Bis-Tris pH 6.5, 133 mM NaCl, 5 mM MgCl2, 5 mM 2-mercaptoethanol, 20 C; protein 20-30 uM in cell titrated with 230-280 uM RNA. The note with it: protein: recombinant; tags: C-terminal His6; single strand.

For another series, the target named is T3, His6-ZZ-Nmd4 FL (Saccharomyces cerevisiae, UniProt Q12129 1-218).
T3 sequence: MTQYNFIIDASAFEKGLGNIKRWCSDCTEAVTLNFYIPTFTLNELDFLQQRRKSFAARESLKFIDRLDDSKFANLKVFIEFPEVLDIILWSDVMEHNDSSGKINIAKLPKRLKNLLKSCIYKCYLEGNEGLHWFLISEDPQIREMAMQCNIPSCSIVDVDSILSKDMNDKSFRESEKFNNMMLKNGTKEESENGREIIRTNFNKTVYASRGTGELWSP
As to the kind of experiment: ITC; 5 mM Mg2+; ITC: 100 mM Bis-Tris pH 6.5, 133 mM NaCl, 5 mM MgCl2, 5 mM 2-mercaptoethanol, 20 C; protein 20-30 uM in cell titrated with 230-280 uM RNA. As to conditions: protein: recombinant; tags: N-terminal His6-ZZ (3C cleavable, kept for ITC); single strand.

Series [2] concerns the target T4, Upf1-HD-His6 (S. cerevisiae Upf1 helicase domain, residues 221 to 851) (S. cerevisiae, UniProt P30771 221-851).
T4 construct: Upf1, S. cerevisiae, helicase domain, residues 221 to 851; Used in ITC and, by the buffer D200 preparation, in the ATPase assays; also called yeast Upf1 helicase domain; source: E. coli BL21 (DE3) Gold, purified (TALON, HiTrap Heparin, S200 SEC); not shown: His6, C-terminal, kept
T4 sequence (looked up): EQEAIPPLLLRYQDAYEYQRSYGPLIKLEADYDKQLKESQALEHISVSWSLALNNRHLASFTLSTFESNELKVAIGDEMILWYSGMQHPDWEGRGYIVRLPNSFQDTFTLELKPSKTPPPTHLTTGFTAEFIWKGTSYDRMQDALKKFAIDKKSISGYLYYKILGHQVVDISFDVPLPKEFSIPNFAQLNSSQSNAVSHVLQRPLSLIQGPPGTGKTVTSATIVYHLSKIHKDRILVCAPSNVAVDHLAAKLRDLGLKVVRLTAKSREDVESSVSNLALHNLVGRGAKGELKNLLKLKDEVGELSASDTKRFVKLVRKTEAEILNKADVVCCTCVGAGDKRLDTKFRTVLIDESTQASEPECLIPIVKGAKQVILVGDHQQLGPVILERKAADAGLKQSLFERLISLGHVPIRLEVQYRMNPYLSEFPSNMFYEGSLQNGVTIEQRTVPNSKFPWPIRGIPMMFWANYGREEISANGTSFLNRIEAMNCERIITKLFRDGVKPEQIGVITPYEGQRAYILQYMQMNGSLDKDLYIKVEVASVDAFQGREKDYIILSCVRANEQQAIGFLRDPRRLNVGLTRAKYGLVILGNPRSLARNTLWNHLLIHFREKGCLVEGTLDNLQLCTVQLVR
Nature of the series: ITC; His6-ZZ-Nmd4 proteins (260 μM full-length and « arm », 330 μM PIN) or His6-ZZ (277 μM) injected into Upf1-HD-His6 (30 to 35 μM); 20°C; 100 mM Bis-Tris pH 6.5, 200 mM NaCl, 5 mM MgCl2, 5 mM 2-mercaptoethanol; one-binding-site model. The note with it: both partners purified.

As a reminder, the Kd is the concentration at which binding is half-saturated. As to UUUUUUUUUUUUUUUUUUUUUUUUUUUUUU (ssRNA) [RNA poly(U)30], the values for the Kd (in series [1]; in the series with Upf1-HD-His6; in the series with His6-ZZ-Nmd4 FL) were 440 ± 210 nM, 1030 ± 280 nM and 8100 ± 2950 nM, respectively.

B1: His6-ZZ-Nmd4 full-length protein (S. cerevisiae) (natural protein, UniProt Q12129 1-218, looked up)
chain: MTQYNFIIDASAFEKGLGNIKRWCSDCTEAVTLNFYIPTFTLNELDFLQQRRKSFAARESLKFIDRLDDSKFANLKVFIEFPEVLDIILWSDVMEHNDSSGKINIAKLPKRLKNLLKSCIYKCYLEGNEGLHWFLISEDPQIREMAMQCNIPSCSIVDVDSILSKDMNDKSFRESEKFNNMMLKNGTKEESENGREIIRTNFNKTVYASRGTGELWSP
notes: also called His6-ZZ-Nmd4 FL; full-length Nmd4; source: E. coli BL21 (DE3) Gold, purified (Ni-NTA, HiTrap Heparin, S75 SEC); not shown: His6, N-terminal, kept; ZZ (tandem Z-domain of S. aureus protein A), N-terminal, kept
Broadly, the stoichiometry N is the number of molecules, sites or subunits per partner or assembly. Consider B1, for which, in series [2], the Kd is 2100 nM, the dH is -14.8 kcal/mol and the “stoichiometry N” value came out at 1.08.

B2: His6-ZZ-Nmd4 « arm » (residues 168 to 218) (domain or fragment, S. cerevisiae, UniProt Q12129 168-218, looked up)
chain: NDKSFRESEKFNNMMLKNGTKEESENGREIIRTNFNKTVYASRGTGELWSP
notes: Nmd4, S. cerevisiae, C-terminal « arm », residues 168 to 218; also called « arm » region; source: E. coli BL21 (DE3) Gold, purified; not shown: His6, N-terminal, kept; ZZ (tandem Z-domain of S. aureus protein A), N-terminal, kept
As for B2, in series [2], the affinity, expressed as Kd, was 1960 nM; the dH was -12.4 kcal/mol; the “stoichiometry N” value was found to be 0.98.

Source of the values: paper PMC11463774, “Structure of the Nmd4-Upf1 complex supports conservation of the nonsense-mediated mRNA decay pathway between yeast and humans” (PLOS Biology, 2024).
